Positions count from the first letter of the chain named.
Assays:
Assay in all cases: SPR, KD relative to WT C2;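 further: biacore SPR at 37 °C, anti-C2 mAbs captured via immobilised goat anti-human IgG, C2 alanine or serine surface mutants as analytes, 1:1 model fitted, double-referenced sensograms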
human C2 M452A = target: T1, human C2 M452A (human, UniProt P06681 21-752)
T1 sequence: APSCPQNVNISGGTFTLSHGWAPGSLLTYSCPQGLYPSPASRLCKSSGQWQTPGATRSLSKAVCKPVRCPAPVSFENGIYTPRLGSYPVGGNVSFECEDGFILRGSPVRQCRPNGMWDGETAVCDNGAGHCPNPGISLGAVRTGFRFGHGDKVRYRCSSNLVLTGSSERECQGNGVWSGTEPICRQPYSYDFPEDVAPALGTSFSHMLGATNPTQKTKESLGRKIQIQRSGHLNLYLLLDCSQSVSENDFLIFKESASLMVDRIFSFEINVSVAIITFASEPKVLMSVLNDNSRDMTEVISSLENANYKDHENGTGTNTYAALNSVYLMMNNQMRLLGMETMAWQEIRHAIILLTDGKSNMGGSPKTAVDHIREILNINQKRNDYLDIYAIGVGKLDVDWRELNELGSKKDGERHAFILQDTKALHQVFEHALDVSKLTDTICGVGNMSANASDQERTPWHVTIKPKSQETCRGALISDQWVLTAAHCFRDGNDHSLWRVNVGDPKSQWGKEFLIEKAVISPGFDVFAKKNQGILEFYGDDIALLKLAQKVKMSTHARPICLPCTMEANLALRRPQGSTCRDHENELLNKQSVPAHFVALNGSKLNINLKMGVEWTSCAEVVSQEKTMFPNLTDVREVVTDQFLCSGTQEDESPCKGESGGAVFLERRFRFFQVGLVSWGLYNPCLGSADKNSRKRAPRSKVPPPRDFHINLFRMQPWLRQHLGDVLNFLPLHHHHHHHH
Experimental: (§1) Surface plasmon resonance (SPR, Biacore) was used for all binding affinity analyses. In brief, goat anti-human IgG was directly immobilised onto the carboxymethyl dextran surface of CM5 sensorchips to approximately 12,000 RU using standard NHS/EDC chemistry at pH 5. The immobilised antibody surface was pre-conditioned with ten injections of polyclonal human IgG (Privigen 60 s) prepared at 1 μg/mL. Ligands (anti-C2 mAbs) were captured at the beginning of each cycle as described below. An adjacent spot or flow cell in which only Polyclonal IgG was capture was used as a reference surface. The goat anti-human IgG Fc antibody surface was regenerate in 100 mM H3PO4, injected for 45 seconds at the end of each cycle. Experiments were performed at 37° C. and the flow rate of each experiment was kept constant at 30 μL/min.
(§2) Sensogram data was double-referenced against a reference anti-IgG surface (i.e. minus anti-C2 mAb) and blank buffer injections obtained within each experiment. The binding data was fit to 1:1 (kinetic or steady-state) model using local Rmax and null refraction index (RI=0) when appropriate. Buffers and solutions were filtered (0.22 μm) prior to use.

human C2 G466A = target: T2, human C2 G466A (human, UniProt P06681 21-752)
T2 sequence: T1 sequence with A432M, G446A
Experimental: as §1, §2

human C2 D269A = target: T3, human C2 D269A (human, UniProt P06681 21-752)
T3 sequence: T1 sequence with D249A, A432M
Experimental: as §1, §2

human C2 P486A = target: T4, human C2 P486A (human, UniProt P06681 21-752)
T4 sequence: T1 sequence with A432M, P466A
Experimental: as §1, §2

B1: RF16-226 (antibody, human IgG4 S228P, lambda)
heavy: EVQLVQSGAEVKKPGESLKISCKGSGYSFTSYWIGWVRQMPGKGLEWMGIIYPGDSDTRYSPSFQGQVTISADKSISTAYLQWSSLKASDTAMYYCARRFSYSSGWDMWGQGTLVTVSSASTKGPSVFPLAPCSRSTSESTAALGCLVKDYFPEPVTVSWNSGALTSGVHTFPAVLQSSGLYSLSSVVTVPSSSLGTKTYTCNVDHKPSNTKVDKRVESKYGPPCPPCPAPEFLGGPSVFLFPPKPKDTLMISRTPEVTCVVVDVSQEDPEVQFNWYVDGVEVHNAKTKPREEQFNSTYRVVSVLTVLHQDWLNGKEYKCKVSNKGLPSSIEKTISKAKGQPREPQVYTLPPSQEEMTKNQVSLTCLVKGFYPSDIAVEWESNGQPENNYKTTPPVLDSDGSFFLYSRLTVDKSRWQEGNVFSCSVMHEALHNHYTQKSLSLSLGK
light: SYELTQPPSVSVSPGQTARITCSGDALTSKYVAWYQQKSGLAPLLVIYEDTRRPSGIPAKFSGSSSGSVATLTISGAHGDDEADYYCYSTDASGHQRVFGGGTKLTVLSQPKAAPSVTLFPPSSEELQANKATLVCLISDFYPGAVTVAWKADGSPVKAGVETTKPSKQSNNKYAASSYLSLTPEQWKSHRSYSCQVTHEGSTVEKTVAPTECS
notes: pH-dependent anti-C2 antibody from a phage display library; also called WT
- Fold diff (human C2 M452A): 0 fold
- Fold diff (human C2 G466A): 3 fold
- Fold diff (human C2 D269A): 1 fold
- Fold diff (human C2 P486A): 1 fold

Reference: US20220332804A1 (CSL INNOVATION, published 2022)
